Assay results reported in patent US20130195807A1.

Target: GHRH receptor (GHRH-R) of rat insulinoma INS-1 cells (rat) (UniProt Q02644)
Assay: cell-based or functional assay

Chain of UniProt Q02644 (Q02644 23-464): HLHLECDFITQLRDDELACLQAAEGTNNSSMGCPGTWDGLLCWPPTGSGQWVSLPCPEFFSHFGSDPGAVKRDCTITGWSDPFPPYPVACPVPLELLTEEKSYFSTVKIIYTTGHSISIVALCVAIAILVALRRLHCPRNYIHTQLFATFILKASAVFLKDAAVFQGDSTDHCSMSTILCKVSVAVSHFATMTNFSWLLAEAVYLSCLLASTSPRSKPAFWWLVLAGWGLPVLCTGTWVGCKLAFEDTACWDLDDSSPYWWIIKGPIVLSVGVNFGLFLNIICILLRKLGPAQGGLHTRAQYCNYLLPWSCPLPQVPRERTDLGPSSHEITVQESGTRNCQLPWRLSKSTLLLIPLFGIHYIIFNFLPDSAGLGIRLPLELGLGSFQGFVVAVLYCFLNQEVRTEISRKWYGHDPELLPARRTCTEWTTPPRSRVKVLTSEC

Question: “GHRH agonist JI-36, (Dat1, Thr8, Orn12,21, Abu15, Nle27, Asp28, Agm29)hGH-RH(1-29) (peptide)” was tested. Which apoptosis of INS-1 cells as indicated by activity of caspases 3 and 7 did it give?
Answer: The apoptosis of INS-1 cells as indicated by activity of caspases 3 and 7 was 20 % reduction.

Question: What about the cell proliferation of INS-1 cells of the same substance?
Answer: Its cell proliferation of INS-1 cells is 50 % increase.
